Non-standard residues stand in square brackets, D forms with d. No end group written: not given here. *: point of attachment. Biotin = O=C1N[C@H]2[C@H](CS[C@H]2CCCCC(=O)*)N1; sY = N[C@@H](Cc1ccc(OS(=O)(=O)O)cc1)C(=O)O
T1: SulfoTyr C4 peptide (not fully specified; Y4, Y7 and Y9 sulfated (SO3); C-terminal biotin)
T1 construct: also called C4 alpha chain peptide; human sulfotyrosinylated C4 peptide
T1 peptide: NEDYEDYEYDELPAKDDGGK

T2: Sulfotyr fibrinogen γ peptide (not fully specified; Y8 and Y12 sulfated (SO3); C-terminal biotin)
T2 construct: also called Fibrinogen gamma peptide; human sulfotyrosinylated fibrinogen peptide
T2 peptide: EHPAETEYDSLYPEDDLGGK

T3: Recombinant human PSGL-1(ECD)-hFc1 (R&D Systems, Cat. 3345-PS) (human, UniProt Q14242 42-305)
T3 construct: Bought; Gln42-Val295 counted on AAC50061; also called PSGL-1-Fc; PSGL-1-hFc1 chimera; not shown: human IgG1 Fc, Pro100-Lys330
T3 sequence: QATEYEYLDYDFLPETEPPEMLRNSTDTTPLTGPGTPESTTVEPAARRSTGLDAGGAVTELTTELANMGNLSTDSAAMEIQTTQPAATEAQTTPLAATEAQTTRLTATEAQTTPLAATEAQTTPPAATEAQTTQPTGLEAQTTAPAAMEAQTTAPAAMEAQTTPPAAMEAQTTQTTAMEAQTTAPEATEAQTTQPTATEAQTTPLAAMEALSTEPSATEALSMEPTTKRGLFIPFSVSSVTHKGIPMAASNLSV

T4: Human fibrinogen protein (ThermoFisher, RP-43142) (human, UniProt P02671 20-629; P02675 31-491; P02679 27-453, limits assumed, natural sulfotyrosines)
T4 construct: mature; Native dimer with 3 pairs of non-identical chains; also called gamma-fibrinogen; γ fibrinogen protein
T4 sequence (looked up) 1: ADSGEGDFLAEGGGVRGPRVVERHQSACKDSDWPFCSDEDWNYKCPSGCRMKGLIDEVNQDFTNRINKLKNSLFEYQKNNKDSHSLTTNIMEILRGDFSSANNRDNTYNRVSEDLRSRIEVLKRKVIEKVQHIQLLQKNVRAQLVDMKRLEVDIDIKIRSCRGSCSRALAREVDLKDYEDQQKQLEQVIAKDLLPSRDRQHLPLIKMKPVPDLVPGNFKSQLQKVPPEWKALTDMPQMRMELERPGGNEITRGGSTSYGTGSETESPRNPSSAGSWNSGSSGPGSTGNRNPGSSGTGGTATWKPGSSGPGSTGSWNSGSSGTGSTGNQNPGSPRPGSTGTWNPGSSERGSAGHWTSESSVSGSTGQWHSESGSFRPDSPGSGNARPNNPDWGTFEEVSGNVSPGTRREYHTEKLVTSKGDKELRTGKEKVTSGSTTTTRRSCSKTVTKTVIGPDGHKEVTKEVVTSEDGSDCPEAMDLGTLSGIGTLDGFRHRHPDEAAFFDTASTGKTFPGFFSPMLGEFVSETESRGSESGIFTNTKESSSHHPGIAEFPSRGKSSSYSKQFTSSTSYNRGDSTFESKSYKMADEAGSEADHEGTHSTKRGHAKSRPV
T4 sequence (looked up) 2: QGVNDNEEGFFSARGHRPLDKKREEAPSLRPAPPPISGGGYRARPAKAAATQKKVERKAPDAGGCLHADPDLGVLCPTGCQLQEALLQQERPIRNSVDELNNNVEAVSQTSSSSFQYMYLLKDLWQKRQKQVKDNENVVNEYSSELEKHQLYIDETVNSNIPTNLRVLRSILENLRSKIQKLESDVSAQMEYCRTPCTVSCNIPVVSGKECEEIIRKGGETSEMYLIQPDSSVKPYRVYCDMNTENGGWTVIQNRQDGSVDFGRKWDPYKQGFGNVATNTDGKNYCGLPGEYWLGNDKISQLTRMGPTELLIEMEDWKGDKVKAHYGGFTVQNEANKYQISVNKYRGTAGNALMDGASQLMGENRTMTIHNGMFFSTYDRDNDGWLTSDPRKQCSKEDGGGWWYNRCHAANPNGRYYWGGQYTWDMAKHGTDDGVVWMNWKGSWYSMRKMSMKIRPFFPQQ
T4 sequence (looked up) 3: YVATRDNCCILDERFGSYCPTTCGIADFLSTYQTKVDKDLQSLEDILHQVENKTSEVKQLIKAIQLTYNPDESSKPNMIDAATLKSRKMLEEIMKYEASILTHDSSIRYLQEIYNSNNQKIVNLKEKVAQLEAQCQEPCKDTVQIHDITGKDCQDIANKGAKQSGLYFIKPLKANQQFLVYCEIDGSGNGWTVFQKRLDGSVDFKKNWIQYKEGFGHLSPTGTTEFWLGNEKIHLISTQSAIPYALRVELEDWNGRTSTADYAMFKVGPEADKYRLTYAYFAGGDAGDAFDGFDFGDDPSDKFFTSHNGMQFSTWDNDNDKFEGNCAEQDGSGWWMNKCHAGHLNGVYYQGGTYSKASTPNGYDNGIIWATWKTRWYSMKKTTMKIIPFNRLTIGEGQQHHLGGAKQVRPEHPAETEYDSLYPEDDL

T5: SulfoCCK biotin peptide (human)
T5 construct: also called sulfotyrosine CCK peptide
T5 peptide: SHRISDRD[sY]MGWMDFGGK(Biotin)

T6: Sulfotyrosine CCR2b biotin peptide (human)
T6 construct: also called CCR2b peptide
T6 peptide: TTFFD[sY]D[sY]GAPSHGGK(Biotin)

T7: Sulfotyrosine D6 biotin peptide (human)
T7 construct: also called D6 peptide
T7 peptide: ENSSFY[sY][sY]D[sY]LDEVAFGGK(Biotin)

T8: Scrambled Y42,52,63(SO3) PSGL-1(42-62) biotin peptide (sulfotyrosine at peptide positions 1, 11 and 22; C-terminal Lys-biotin)
T8 peptide: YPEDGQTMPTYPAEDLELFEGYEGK

T9: Biotin PSGL-1(42-62) peptide, unmodified (human, C-terminal Lys-biotin)
T9 construct: Residues 42-62 followed by GGGK-biotin; also called WT; wild-type
T9 peptide: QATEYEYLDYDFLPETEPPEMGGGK

T10: Biotin Y46,48,51(SO3) PSGL-1(42-62) peptide (human, sulfotyrosine at Y46, Y48 and Y51; C-terminal Lys-biotin)
T10 construct: also called fully sulfated N-terminal PSGL-1 peptide
T10 peptide: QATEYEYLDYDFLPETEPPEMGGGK

B1: 03B04 (antibody, IgG4, V domains shown)
VH: EVKLLESGGGLVKPGGSLRLSCAASGFAFSRYTMNWVRQAPGKGLEWVSSISSSSSYIYYADSVKGRFTISRDNAKNSLVLQMNSLRPEDTAVYYCARGGIAANDYWGQGTLVTVSS
VL: EIVMTQTPLSLPVTLGQPASISCRSSRNLVHYDGNTYLSWFHQRPGQPPRRLIYKISNRESGVPDRFSGSGSGTDFTLKISRVEAEDVGVYYCLQHTHWPWTFGPGTKVEIK
B2: 02E01 (antibody, IgG4, V domains shown)
VH: EVQLVQSGGGVVQPGRSLRLSCAASGFTFSRYGMHWVRQAPGKGLEWVSVISYDGNNKYYADSVKGRFTISRDNSKNTVYLQMNSLRADDTAVYYCARNVPVTNFGYWGQGTLVTVSS
VL: QSALTQPASVSGSPGQSITISCTGTSSDVGGYNYVSWYQQHPGKAPKLMIYDVSKRPSGVSNRFSGSKSGNTASLTISGLQAEDEADYYCSSYTRPGRVFGGGTKLTVL
B3: 08C07 (antibody, IgG4, V domains shown)
VH: QMQLVQSGAEVKKPGSSVKVSCKASGGTFSNYGMIWVRQAPRQGLEWMGRIIPFLDKPDYSEKFQDRITFTADKSTSTVYMELRGLRSDDTAVYYCAKWTSTLQGITTGQTWGQGTLVTVSS
VL: QPVLTQPPSASGTPGQRVTISCSGSSSNIGGSYMYWYQQFPGTAPKLLIYRNNQRPSGVPDRFSGSKSGTSASLAISGLRSEDEADYYCAAWDVSLSGWVFGGGTKLTVL
B4: 02E06 (antibody, IgG4, V domains shown)
VH: QVQLVQSGAEVKKPGASVKVSCKASGYSFTDYYMHWVRQAPGQGLEWMGWMNPNSGNTGYAQTFQGRVTMTRNTSISTAYMELSSLRSEDTAVYYCARGRRVRGTPTFEYWGQGTLVTVSS
VL: QSVVTQPPSASGTPGQRVTISCSGRSSNIGSYTVNWFQHLPGTGPKLLIYGNNQRPSGVPGRFSGSKSGTSASLAISGLQSNDEATYYCAAWDDSLNGHYVFGTGTKVTVL
B5: 07G01 (antibody, V domains shown)
VH: EVKLLESGGGLVRPGGSLRLSCAASGFTLSNYAMSWVRQAPGKGLEWVSAISGVGITTYYADSVKGRFIISRDNSKNTVYLQMNSLRAEDTAVYYCAKSRGGGAFDYWGQGTLVTVSS
VL: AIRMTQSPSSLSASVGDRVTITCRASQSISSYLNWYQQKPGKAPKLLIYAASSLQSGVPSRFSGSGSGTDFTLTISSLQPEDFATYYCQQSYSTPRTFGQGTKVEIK

Target: T1, SulfoTyr C4 peptide
Test: ELISA, 50 nM mAb
Description: (§1) Recombinant PSGL-1-hFc1 chimera protein consisting of PSGL-1's extracellular domain (ECD) served as a positive control. […] Primary antibody was added (25 ul per well) in duplicate at 50 nM in assay buffer (blocking buffer containing 0.05% Tween®20) into test and control (just blocked) wells and the plate incubated for 45 min at 37° C.

| binding normalized to PSGL-1 | Binder |
| --- | --- |
| 0.41 | B1 |
| 0.94 | B2 |
| 0.89 | B3 |
| 1.28 | B4 |
| 1.41 | B5 |

Target: T2, Sulfotyr fibrinogen γ peptide
Test: ELISA, 50 nM mAb
Description: as §1

| binding normalized to PSGL-1 | Binder |
| --- | --- |
| 0.57 | B1 |
| 1.13 | B2 |
| 0.49 | B3 |
| 1.34 | B4 |
| 1.44 | B5 |

Target: T3, Recombinant human PSGL-1(ECD)-hFc1 (R&D …)
Test: ELISA, 50 nM mAb
Description: as §1

| A450nm [A450nm] | Binder |
| --- | --- |
| 1.7 | B1 |
| 1.78 | B3 |
| 1.8 | B4 |
| 1.69 | B5 |

Target: T11, Human complement C4 protein (Millipore Sigma, Cat. 204886) (human, UniProt P0C0L4 20-675; P0C0L4 680-1446; P0C0L4 1454-1744, limits assumed, natural sulfotyrosines)
T11 construct: mature
Test: ELISA, 50 nM mAb
Description: as §1

T11 sequence (P0C0L4 20-675 limits assumed, form in doubt, chain 1 of 3): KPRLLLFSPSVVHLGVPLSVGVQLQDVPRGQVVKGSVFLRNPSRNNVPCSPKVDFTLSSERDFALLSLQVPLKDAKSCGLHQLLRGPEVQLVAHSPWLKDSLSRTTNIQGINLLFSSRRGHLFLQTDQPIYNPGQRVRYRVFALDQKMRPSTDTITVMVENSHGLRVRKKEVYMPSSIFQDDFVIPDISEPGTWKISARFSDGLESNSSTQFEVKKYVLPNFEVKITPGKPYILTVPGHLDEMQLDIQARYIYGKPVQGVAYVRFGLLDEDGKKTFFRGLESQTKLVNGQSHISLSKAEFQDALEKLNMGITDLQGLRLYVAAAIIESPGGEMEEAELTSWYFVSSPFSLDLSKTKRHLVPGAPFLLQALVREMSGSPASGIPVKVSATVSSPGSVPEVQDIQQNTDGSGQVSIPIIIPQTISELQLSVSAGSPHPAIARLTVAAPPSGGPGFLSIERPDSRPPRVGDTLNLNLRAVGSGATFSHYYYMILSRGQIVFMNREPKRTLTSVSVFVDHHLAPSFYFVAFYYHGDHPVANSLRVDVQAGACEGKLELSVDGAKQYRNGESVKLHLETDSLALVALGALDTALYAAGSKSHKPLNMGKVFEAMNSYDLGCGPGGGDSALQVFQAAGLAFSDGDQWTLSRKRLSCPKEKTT
T11 sequence (P0C0L4 680-1446 limits assumed, form in doubt, chain 2 of 3): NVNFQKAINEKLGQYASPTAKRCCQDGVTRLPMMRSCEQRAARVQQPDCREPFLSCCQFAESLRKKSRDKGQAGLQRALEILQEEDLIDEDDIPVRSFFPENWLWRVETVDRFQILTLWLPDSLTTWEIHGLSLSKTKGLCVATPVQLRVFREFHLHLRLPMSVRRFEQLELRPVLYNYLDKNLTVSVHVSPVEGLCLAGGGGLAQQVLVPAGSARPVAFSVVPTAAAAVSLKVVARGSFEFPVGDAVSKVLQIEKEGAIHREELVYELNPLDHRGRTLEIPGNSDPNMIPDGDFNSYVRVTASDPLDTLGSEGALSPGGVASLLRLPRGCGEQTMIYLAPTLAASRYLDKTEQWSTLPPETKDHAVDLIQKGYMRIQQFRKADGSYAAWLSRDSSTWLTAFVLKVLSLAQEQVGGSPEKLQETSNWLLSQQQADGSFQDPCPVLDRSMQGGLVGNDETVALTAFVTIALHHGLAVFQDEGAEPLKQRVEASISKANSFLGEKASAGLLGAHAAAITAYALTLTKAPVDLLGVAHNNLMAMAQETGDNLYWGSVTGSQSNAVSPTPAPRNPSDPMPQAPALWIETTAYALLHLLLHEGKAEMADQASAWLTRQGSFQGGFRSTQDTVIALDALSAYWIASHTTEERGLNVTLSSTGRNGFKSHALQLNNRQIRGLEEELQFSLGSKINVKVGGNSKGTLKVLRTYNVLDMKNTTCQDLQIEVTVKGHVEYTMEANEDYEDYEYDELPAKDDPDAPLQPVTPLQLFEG
T11 sequence (P0C0L4 1454-1744 limits assumed, form in doubt, chain 3 of 3): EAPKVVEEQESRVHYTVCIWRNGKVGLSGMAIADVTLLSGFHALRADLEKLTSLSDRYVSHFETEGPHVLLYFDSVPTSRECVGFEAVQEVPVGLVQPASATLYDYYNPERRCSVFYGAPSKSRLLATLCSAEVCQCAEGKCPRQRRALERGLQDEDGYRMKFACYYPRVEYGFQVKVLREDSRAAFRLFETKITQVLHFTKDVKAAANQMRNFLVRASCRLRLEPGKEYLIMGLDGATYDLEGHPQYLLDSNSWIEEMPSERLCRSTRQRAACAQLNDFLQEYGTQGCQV

| binding normalized to PSGL-1 | Binder |
| --- | --- |
| 0.56 | B1 |
| 0.87 | B2 |
| 0.6 | B3 |
| 1.24 | B4 |
| 1.38 | B5 |

Target: T4, Human fibrinogen protein (ThermoFisher, …)
Test: ELISA, 50 nM mAb
Description: as §1

| binding normalized to PSGL-1 | binding result | Binder |
| --- | --- | --- |
| -0.07 | no binding (tested: 50 nM) | B1 |
| -0.18 | no binding (tested: 50 nM) | B2 |
| 0.03 | – | B3 |
| 0.2 | – | B4 |
| 0.13 | – | B5 |

Target: T5, SulfoCCK biotin peptide
Test: ELISA, 50 nM mAb
Description: as §1

| binding normalized to PSGL-1 | Binder |
| --- | --- |
| 0.13 | B1 |
| 0.5 | B2 |
| 0.66 | B3 |
| 1.21 | B4 |
| 1.66 | B5 |

Target: T6, Sulfotyrosine CCR2b biotin peptide
Test: ELISA, 50 nM mAb
Description: as §1

| binding normalized to PSGL-1 | binding result | Binder |
| --- | --- | --- |
| 0.01 | no binding (tested: 50 nM) | B1 |
| 0.56 | – | B2 |
| 0.79 | – | B3 |
| 1.19 | – | B4 |
| 1.63 | – | B5 |

Target: T7, Sulfotyrosine D6 biotin peptide
Test: ELISA, 50 nM mAb
Description: as §1

| binding normalized to PSGL-1 | Binder |
| --- | --- |
| 0.42 | B1 |
| 1.48 | B2 |
| 1.2 | B3 |

Target: T8, Scrambled Y42,52,63(SO3) PSGL-1(42-62) …
Test: ELISA, immobilized biotin peptide
Description: (§2) A typical ELISA was performed by coating high binding half-well plates (Corning Cat. #3690) with 3 ug/mL/25 ul per well of biotinylated N-terminal PSGL-1 peptides, which incorporated residues 42 to 62 of the protein, in PBS, pH 7.4, overnight at 4° C. The peptide was unmodified or contained sulfated tyrosine at all 3 tyrosine positions (46, 48, and 51) or at one position (tyr51) (Table 7).
(§3) PSGL-1 protein or peptide served as a positive control. […] […] […] For each antibody, duplicate values were averaged and average assay background was subtracted.

| A450nm, 20 nM mAb [A450nm] | binding result | Binder |
| --- | --- | --- |
| 0.01 | no binding (tested: 20 nM) | B1 |
| 0.03 | no binding (tested: 20 nM) | B2 |
| – | no binding (tested: 20 nM) | B3 |
| 0.12 | – | B4 |
| – | no binding (tested: 20 nM) | B5 |

Target: T9, Biotin PSGL-1(42-62) peptide, unmodified
Test: ELISA, immobilized biotin peptide
Description: as §2, §3

| EC50 [nM] | A450nm, 20 nM mAb [A450nm] | Binder |
| --- | --- | --- |
| 5.1 | – | B1 |
| – | 2.07 | B2 |
| > 500 | – | B4 |
| > 500 | – | B5 |

Target: T10, Biotin Y46,48,51(SO3) PSGL-1(42-62) …
Test: ELISA, immobilized biotin peptide
Description: as §2, §3

| A450nm, 20 nM mAb [A450nm] | EC50 [nM] | Binder |
| --- | --- | --- |
| 2.5 | 1.7 | B1 |
| 2.5 | – | B2 |
| 2.6 | – | B3 |
| 2.6 | 0.17 | B4 |
| 2.58 | 3.7 | B5 |
